The text below walks through data of US20120088715A1 (UNIVERSITE PARIS SUD XI, published 2012).

Some results are limits rather than exact numbers.

This test addresses T1, factor Xa (UniProt P00742 41-179; P00742 235-488, limits assumed).
T1 construct: Bought enzyme; The active enzyme has a light and a heavy chain cut from that precursor; also called FXa
As to the kind of experiment: discontinuous chromogenic substrate assay of FXa inhibition with pentasaccharide, against plasma AT.

T1 sequence (P00742 41-179 limits assumed, form in doubt, chain 1 of 2): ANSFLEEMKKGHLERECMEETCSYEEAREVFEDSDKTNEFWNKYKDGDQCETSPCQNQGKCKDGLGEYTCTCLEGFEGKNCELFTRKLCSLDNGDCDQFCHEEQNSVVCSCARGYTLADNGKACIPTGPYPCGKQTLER
T1 sequence (P00742 235-488 limits assumed, form in doubt, chain 2 of 2): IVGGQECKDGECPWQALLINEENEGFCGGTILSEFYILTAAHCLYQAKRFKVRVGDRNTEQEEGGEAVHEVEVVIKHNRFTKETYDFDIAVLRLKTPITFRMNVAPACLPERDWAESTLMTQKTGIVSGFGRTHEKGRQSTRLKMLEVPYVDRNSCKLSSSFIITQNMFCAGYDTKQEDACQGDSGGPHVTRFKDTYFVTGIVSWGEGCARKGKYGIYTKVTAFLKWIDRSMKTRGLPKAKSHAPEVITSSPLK
Procedure: The pentasaccharide is added in excess in the reaction media so that every tested antithrombin is bound to the pentasaccharide. In the absence of pentasaccharide, polybrene (100 μg/ml final) is added in order to neutralize any sulfated glycosaminoglycan that may be present in the reaction media. […] The analysis of the data is performed using the GraphPad Prism version 3 software. Absorbance recording is continuous or discontinuous according to the expected inhibition rate constant (kon).
When the expected kon is lower than 10⁴ M⁻¹.s⁻¹ the discontinuous method is used. […] At the end of this incubation period, 190 μl of kinetic buffer containing 200 μM substrate is added and absorbance at 405 nm is recorded.

B1: AT-N135Q-Pro394 (other)
chain: HGSPVDICTAKPRDIPMNPMCIYRSPEKKATEDEGSEQKIPEATNRRVWELSKANSRFATTFYQHLADSKNDNDNIFLSPLSISTAFAMTKLGACNDTLQQLMEVFKFDTISEKTSDQIHFFFAKLNCRLYRKAQKSSKLVSANRLFGDKSLTFNETYQDISELVYGAKLQPLDFKENAEQSRAAINKWVSNKTEGRITDVIPSEAINELTVLVLVNTIYFKGLWKSKFSPENTRKELFYKADGESCSASMMYQEGKFRYRRVAEGTQVLELPFKGDDITMVLILPKPEKSLAKVEKELTPEVLQEWLDELEEMMLVVHMPRFRIEDGFSLKEQLQDMGLVDLFSPEKSKLPGIVAEGRDDLYVSDAFHKAFLEVNEEGSEAAASTAVVIAGRPSLNPNRVTFKANRPFLVFIREVPLNTIIFMGRVANPCVK
Regarding B1, the “fold lower kon than plasma AT” value is not below 7600 fold.
